Test [1] addresses HLA-A*02:01. Description: IEDB peptide-MHC binding, purified MHC/direct/fluorescence; filed as Kd, often an IC50 or EC50 that approximates it; ≥ and ≤ were set here for values at or beyond the usual limits of such assays.
The target in test [2] is HLA-A*02:12. Described as above. The following applies: source organism: Vibrio vulnificus CMCP6.
The target of test [3] is HLA-A*02:16. The test is described as above. The following applies: source organism: Vibrio vulnificus CMCP6.
Test [4] addresses HLA-A*69:01. The test is described as above.
A further test addresses HLA-C*05:01. The test is described as above. The conditions noted are these: source organism: Vibrio vulnificus YJ016.
Another test addresses HLA-A*02:50. The test is described as follows: IEDB peptide-MHC binding, purified MHC/competitive/fluorescence; filed as Kd, often an IC50 or EC50 that approximates it; ≥ and ≤ were set here for values at or beyond the usual limits of such assays.
Test [5] concerns the target HLA-A*02:01. The test is described as above. The conditions noted are these: source organism: Salmonella enterica subsp. enterica serovar Typhi.
In another test the target is HLA-A*02:03. Described as above. The conditions noted are these: source organism: Salmonella enterica subsp. enterica serovar Typhi.
In another test the target is HLA-A*02:11. The description is as above. The conditions noted are these: source organism: Salmonella enterica subsp. enterica serovar Typhi.
Test [6] addresses HLA-A*02:12. The test is described as above. The conditions noted are these: source organism: Salmonella enterica subsp. enterica serovar Typhi.
Test [7] addresses HLA-A*02:16. Described as above. The following applies: source organism: Salmonella enterica subsp. enterica serovar Typhi.
The target in another test is HLA-A*02:19. Described as above. The conditions noted are these: source organism: Salmonella enterica subsp. enterica serovar Typhi.
The target of test [8] is HLA-A*03:01. The description is as above. The following applies: source organism: Salmonella enterica subsp. enterica serovar Typhi.
Test [9] has as its target HLA-A*26:01. The test is described as above. The conditions noted are these: source organism: Salmonella enterica subsp. enterica serovar Typhi.
In the next test the target is HLA-A*68:02. The test is described as above. The conditions noted are these: source organism: Salmonella enterica subsp. enterica serovar Typhi.
The target in test [10] is HLA-A*69:01. Described as above. The following applies: source organism: Salmonella enterica subsp. enterica serovar Typhi.
The target of test [11] is HLA-B*15:01. The description is as above. The following applies: source organism: Salmonella enterica subsp. enterica serovar Typhi.
The next test has as its target HLA-B*18:01. The description is as above. The following applies: source organism: Salmonella enterica subsp. enterica serovar Typhi.
The target of another test is HLA-B*27:03. The description is as above. The following applies: source organism: Salmonella enterica subsp. enterica serovar Typhi.
Another test addresses HLA-B*39:01. The description is as above. The following applies: source organism: Salmonella enterica subsp. enterica serovar Typhi.
For the next test, the target named is HLA-B*46:01. The description is as above. The conditions noted are these: source organism: Salmonella enterica subsp. enterica serovar Typhi.
In another test the target is HLA-B*51:01. The description is as above. The following applies: source organism: Salmonella enterica subsp. enterica serovar Typhi.
A further test concerns the target HLA-B*57:01. Described as above. The following applies: source organism: Salmonella enterica subsp. enterica serovar Typhi.
The target of a further test is HLA-B*08:01. Description: IEDB peptide-MHC binding, purified MHC/direct/fluorescence; filed as Kd, often an IC50 or EC50 that approximates it; ≥ and ≤ were set here for values at or beyond the usual limits of such assays.
In a further test the target is HLA-B*08:02. Described as above. The conditions noted are these: source organism: Bacillus anthracis str. Sterne.
The target of the next test is HLA-C*06:02. The description is as above. The following applies: source organism: Bacillus anthracis str. A2012.
A further test addresses HLA-C*14:02. Described as above. The following applies: source organism: Bacillus anthracis str. A2012.
The next test has as its target HLA-C*15:02. The description is as above. The conditions noted are these: source organism: Bacillus anthracis str. A2012.
Another test concerns the target HLA-B*15:42. The test is described as follows: IEDB peptide-MHC binding, purified MHC/competitive/fluorescence; filed as Kd, often an IC50 or EC50 that approximates it; ≥ and ≤ were set here for values at or beyond the usual limits of such assays.
A further test addresses HLA-B*27:20. Described as above.
The next test concerns the target HLA-B*45:06. The test is described as above.
The next test addresses HLA-B*83:01. The test is described as above.
The target in the next test is HLA-A*01:01. Description: IEDB peptide-MHC binding, purified MHC/direct/fluorescence; filed as Kd, often an IC50 or EC50 that approximates it; ≥ and ≤ were set here for values at or beyond the usual limits of such assays. The conditions noted are these: source organism: Serratia marcescens.
The target in test [12] is HLA-A*03:01. The description is as above. The following applies: source organism: Serratia marcescens.
In test [13] the target is HLA-A*26:01. Described as above. The conditions noted are these: source organism: Serratia marcescens.
In another test the target is HLA-A*31:01. Described as above. The conditions noted are these: source organism: Serratia marcescens.
The target in another test is HLA-B*07:02. Described as above. The following applies: source organism: Serratia marcescens.
The target in test [14] is HLA-B*15:01. Described as above. The following applies: source organism: Serratia marcescens.
Another test has as its target HLA-B*27:05. The test is described as above.
The target in the next test is HLA-B*40:01. The test is described as above.
In the next test the target is HLA-B*58:01. Described as above. The conditions noted are these: source organism: Serratia marcescens.
Where [15] appears, read: source organism: Vibrio vulnificus.
The mark [16] stands for this setting: source organism: Bacillus anthracis str. A2012.
Setting [17] is: source organism: Serratia marcescens.
[18] abbreviates: source organism: Pan troglodytes.

As a reminder, the Kd is a measure of binding affinity in units of concentration.

Consider MSDWGHITV, for which the dissociation constant Kd in the test with HLA-A*02:01 [1] (setting [15]) was 0.276 µM; with HLA-A*02:12 [2], 0.056 µM; in the test with HLA-A*02:16 [3] it was 0.029 µM; with HLA-A*69:01 [4] (setting [15]), not above 0.001 µM; with HLA-C*05:01, not above 0.001 µM; with HLA-A*02:50 (source organism: Vibrio vulnificus YJ016), 0.0098 µM.
Regarding KTVRYWHRF, the dissociation constant (Kd) in the test with HLA-A*02:01 [5], with HLA-A*02:03, in the test with HLA-A*02:11, with HLA-A*02:12 [6], with HLA-A*02:16 [7] and in the test with HLA-A*02:19 was not below 20 µM in each case. For the same sequence, the Kd with HLA-A*03:01 [8], with HLA-A*26:01 [9], with HLA-A*68:02, with HLA-A*69:01 [10], in the test with HLA-B*15:01 [11] and with HLA-B*18:01 was not below 20 µM throughout. The Kd is not below 20 µM in the test with HLA-B*27:03; not below 20 µM with HLA-B*39:01; not below 20 µM in the test with HLA-B*46:01; not below 20 µM in the test with HLA-B*51:01; 0.0403 µM with HLA-B*57:01.
With YMKERFTVL, the Kd with HLA-B*08:01 (source organism: Bacillus anthracis str. Sterne) was 0.015 µM; in the test with HLA-B*08:02 it was 0.282 µM; with HLA-C*06:02, 0.149 µM; with HLA-C*14:02 it was 0.173 µM; with HLA-C*15:02, 1.5 µM; with HLA-B*15:42 (setting [16]) it was not below 5 µM. Further, the figures for the Kd with HLA-B*27:20 (setting [16]), with HLA-B*45:06 (setting [16]) and with HLA-B*83:01 (setting [16]) were 0.0226 µM, not below 5 µM and not below 5 µM, respectively.
Turning to LIPDGDGEV, the dissociation constant (Kd) in the test with HLA-A*01:01, in the test with HLA-A*02:01 [1] (setting [17]), with HLA-A*03:01 [12], with HLA-A*26:01 [13], in the test with HLA-A*31:01 and in the test with HLA-A*69:01 [4] (setting [17]) was not below 20 µM throughout. Also, the dissociation constant (Kd) with HLA-B*07:02, with HLA-B*08:01 (setting [17]), with HLA-B*15:01 [14], with HLA-B*27:05 (setting [17]), with HLA-B*40:01 (setting [17]) and with HLA-B*58:01 was not below 20 µM each time. The Kd with HLA-A*02:50 (setting [17]) was 0.0017 µM.
RRHWGGNVL: the dissociation constant (Kd) is 2.3 µM with HLA-B*27:05 (source organism: Homo sapiens); not below 43 µM with HLA-B*40:01 (source organism: Homo sapiens); not below 5 µM with HLA-B*15:42 (setting [18]); 0.0002 µM with HLA-B*27:20 (setting [18]); not below 5 µM with HLA-B*45:06 (setting [18]); not below 5 µM in the test with HLA-B*83:01 (setting [18]).

The record behind these values is the Immune Epitope Database (IEDB).
